Measured values reported in doi:10.1101/142505, “14-3-3 Negatively Regulates Actin Filament Formation in the Deep Branching Eukaryote Giardia lamblia” (bioRxiv, 2017).

Target: the molecule itself
Experiment: native gel or EMSA; TS-actin and associated proteins eluted from StrepTactin resin with 2 mM biotin, run at once on 4-16% NativePAGE, western blot; also samples crosslinked with DSP before lysis

B1: Gl14-3-3-HA (endogenously C-terminally 3XHA tagged Gl14-3-3) (natural protein, Giardia lamblia, UniProt E2RU97 1-248, looked up)
chain: MAEAFTREDYVFMAQLNENAERYDEMVETMRKISGMEGELSDKERNLLSVAYKNVIGPRRAAWRIVSSIEAKEKGRQKPNAKRIEQIRVYRQKIEKELSDICNDILKLLQEQFVPRSTNADAKVFYYKMQGDYYRYLAEYSSGEDKEKIAGSALNAYNSAFEISQQLPPTHPIRLGLALNFSVFYYEILASPDRACELARKAFDAAITDLDKLTEESYKDSTLIMQLLRDNLNLWVTDSAGDDNAEEK
notes: the single 14-3-3 homolog of Giardia (Gl14-3-3), GL50803_6430; source: Giardia trophozoites, endogenously tagged, in lysate; not shown: 3XHA, C-terminal, kept
stoichiometry N: 2
